Measurements reported in PMC9365158 (2022).

Assays:
RBD-mFc = RBD-mFc (SARS-CoV-2, UniProt P0DTC2); experiment: BLI
S1-hFc = S1-hFc (SARS-CoV-2); experiment: BLI

B1: RBD-1-2G(NCATS-BL8125) (VHH)
VHH: EVQLVESGGGLVQPGGSLRLSCAASGFSSIVYMGWFRQAPGKGRELVAAIDASGSTTNYPDSVEGRFTISRDNAKRMVYLQMNSLRAEDTAVYYCAIAYFTSPEYVVSQGWGQGTQVTVSS
B1 was tested, and the koff (RBD-mFc) was 0.00024 s⁻¹ and the koff (S1-hFc) was 0.0002 s⁻¹.
